Test results published in US20140072613A1, “Compositions and Methods for Treating Cutaneous Scarring” (priority 2012, published 2014).

Key:
[1] = molecular target: 266 human kinases (Homo sapiens, UniProt Q9H1R3); experiment: biochemical; assay type: biochemical; conditions: MLCK(h); 100 μM
Summary of the method: (§1)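 Steps: kinase transfers radiolabelled phosphate from ATP onto a positively charged substrate; the substrate is trapped on a negatively charged filter; bound radioactivity is counted by scintillation and compared with uninhibited (100%) activity.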

[2] = molecular target: 266 human kinases (Homo sapiens, UniProt P42345); experiment: biochemical; assay type: biochemical; conditions: 100 μM
Summary of the method: as §1

[3] = molecular target: 266 human kinases (Homo sapiens, UniProt Q86Y07); experiment: biochemical; assay type: biochemical; conditions: VRK2(h); 100 μM
Summary of the method: as §1

[4] = molecular target: 266 human kinases (Homo sapiens, UniProt Q9Y5S2); experiment: biochemical; assay type: biochemical; conditions: MRCKβ(h); 100 μM
Summary of the method: as §1

[5] = molecular target: 266 human kinases (Homo sapiens, UniProt Q15349); experiment: biochemical; assay type: biochemical; conditions: Rsk3(h); 100 μM
Summary of the method: as §1

[6] = molecular target: 266 human kinases (Homo sapiens, UniProt P06493); experiment: biochemical; assay type: biochemical; conditions: CDK1/cyclinB(h); 100 μM
Summary of the method: as §1

[7] = molecular target: 266 human kinases (Homo sapiens, UniProt Q9Y3S1); experiment: biochemical; assay type: biochemical; conditions: WNK2(h); 100 μM
Summary of the method: as §1

[8] = molecular target: 266 human kinases (Homo sapiens, UniProt P51955); experiment: biochemical; assay type: biochemical; conditions: NEK2(h); 100 μM
Summary of the method: as §1

[9] = molecular target: 266 human kinases (Homo sapiens, UniProt O14757); experiment: biochemical; assay type: biochemical; conditions: CHK1(h); 100 μM
Summary of the method: as §1

[10] = molecular target: T1, 266 human kinases (Homo sapiens, UniProt P54753); experiment: biochemical; assay type: biochemical; conditions: EphB3(h); 100 μM
T1 sequence (P54753 34-998): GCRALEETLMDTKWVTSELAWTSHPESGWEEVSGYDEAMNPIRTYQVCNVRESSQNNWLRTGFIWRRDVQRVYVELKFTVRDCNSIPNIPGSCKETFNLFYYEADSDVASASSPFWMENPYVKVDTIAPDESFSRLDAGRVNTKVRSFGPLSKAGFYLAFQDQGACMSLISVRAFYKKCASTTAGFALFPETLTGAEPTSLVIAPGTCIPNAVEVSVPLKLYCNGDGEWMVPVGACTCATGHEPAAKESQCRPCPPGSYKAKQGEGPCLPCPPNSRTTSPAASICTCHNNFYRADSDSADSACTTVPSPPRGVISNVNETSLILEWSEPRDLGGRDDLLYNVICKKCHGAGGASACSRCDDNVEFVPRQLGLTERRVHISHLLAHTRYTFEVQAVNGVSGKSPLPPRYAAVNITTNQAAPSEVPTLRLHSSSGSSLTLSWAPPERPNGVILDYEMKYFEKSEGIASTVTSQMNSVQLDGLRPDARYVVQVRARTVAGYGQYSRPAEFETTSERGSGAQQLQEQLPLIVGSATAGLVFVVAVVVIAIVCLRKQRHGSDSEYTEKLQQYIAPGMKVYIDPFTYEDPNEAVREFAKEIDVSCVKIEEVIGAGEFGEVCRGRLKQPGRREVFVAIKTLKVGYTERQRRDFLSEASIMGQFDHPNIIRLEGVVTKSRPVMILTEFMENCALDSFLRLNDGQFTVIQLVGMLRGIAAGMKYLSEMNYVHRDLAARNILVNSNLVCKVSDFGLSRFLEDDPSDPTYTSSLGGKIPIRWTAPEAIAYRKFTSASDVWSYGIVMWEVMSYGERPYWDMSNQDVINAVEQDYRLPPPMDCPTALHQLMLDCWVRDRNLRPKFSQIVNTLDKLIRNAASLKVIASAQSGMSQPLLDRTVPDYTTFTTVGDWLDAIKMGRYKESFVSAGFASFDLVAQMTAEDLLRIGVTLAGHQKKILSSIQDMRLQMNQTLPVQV
Summary of the method: as §1

[11] = molecular target: 266 human kinases (Homo sapiens, UniProt Q06187); experiment: biochemical; assay type: biochemical; conditions: BTK(h); 100 μM
Summary of the method: as §1

[12] = molecular target: 266 human kinases (Homo sapiens, UniProt Q96SB4); experiment: biochemical; assay type: biochemical; conditions: SRPK1(h); 100 μM
Summary of the method: as §1

[13] = molecular target: 266 human kinases (Homo sapiens, UniProt P00519); experiment: biochemical; assay type: biochemical; conditions: Abl(h); 100 μM
Summary of the method: as §1

[14] = molecular target: MAPKAP-K2 (h) (Homo sapiens, UniProt P49137); experiment: Millipore radiometric kinase assay (IC50 Profiler Express / kinase profiling); assay type: biochemical; conditions: MAPKAP-K2(h); 100 μM
Source text: (§2) Specifically, in these assays, a positively charged substrate is phosphorylated with a radiolabeled phosphate group from an ATP if the kinase is not inhibited by an inhibitor peptide. The positively charged substrate then is attracted to a negatively charged filter membrane, quantified with a scintillation counter, and compared to a 100% activity control.

[15] = molecular target: TrkB (h) (Homo sapiens, UniProt Q16620); experiment: as above; assay type: biochemical; conditions: TrkB(h); 100 μM
Source text: as §2

[16] = molecular target: MAPKAP-K3 (h) (Homo sapiens, UniProt Q16644); experiment: as above; assay type: biochemical; conditions: MAPKAP-K3(h); 100 μM
Source text: as §2

[17] = molecular target: Fgr (h) (Homo sapiens, UniProt P09769); experiment: biochemical; conditions: Fgr(h); 100 μM
Source text: as §2

[18] = molecular target: Yes (h) (Homo sapiens, UniProt P07947); experiment: biochemical; conditions: Yes(h); 100 μM
Source text: as §2

[19] = molecular target: EphA2 (h) (Homo sapiens, UniProt P29317); experiment: biochemical; conditions: EphA2(h); 100 μM
Source text: as §2

Chain of 266 human kinases (Homo sapiens, UniProt Q06187) (Q06187 whole entry): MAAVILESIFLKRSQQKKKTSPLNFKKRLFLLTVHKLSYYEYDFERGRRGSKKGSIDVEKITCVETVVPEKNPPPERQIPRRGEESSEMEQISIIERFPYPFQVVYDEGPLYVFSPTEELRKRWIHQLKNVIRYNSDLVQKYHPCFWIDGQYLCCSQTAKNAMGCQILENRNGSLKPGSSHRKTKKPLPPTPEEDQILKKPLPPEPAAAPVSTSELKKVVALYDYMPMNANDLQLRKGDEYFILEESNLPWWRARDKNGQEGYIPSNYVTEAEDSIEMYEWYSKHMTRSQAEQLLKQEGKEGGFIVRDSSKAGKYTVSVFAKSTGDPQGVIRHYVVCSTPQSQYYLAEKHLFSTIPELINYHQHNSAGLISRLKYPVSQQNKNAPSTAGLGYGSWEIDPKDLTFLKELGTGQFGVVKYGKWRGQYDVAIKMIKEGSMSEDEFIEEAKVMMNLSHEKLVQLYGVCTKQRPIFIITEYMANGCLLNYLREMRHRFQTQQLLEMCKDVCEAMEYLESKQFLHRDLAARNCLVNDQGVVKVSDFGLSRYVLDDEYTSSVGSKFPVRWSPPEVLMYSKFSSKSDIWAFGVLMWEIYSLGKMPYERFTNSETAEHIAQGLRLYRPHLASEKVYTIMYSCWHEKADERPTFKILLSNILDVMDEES
Chain of 266 human kinases (Homo sapiens, UniProt P51955) (P51955 whole entry): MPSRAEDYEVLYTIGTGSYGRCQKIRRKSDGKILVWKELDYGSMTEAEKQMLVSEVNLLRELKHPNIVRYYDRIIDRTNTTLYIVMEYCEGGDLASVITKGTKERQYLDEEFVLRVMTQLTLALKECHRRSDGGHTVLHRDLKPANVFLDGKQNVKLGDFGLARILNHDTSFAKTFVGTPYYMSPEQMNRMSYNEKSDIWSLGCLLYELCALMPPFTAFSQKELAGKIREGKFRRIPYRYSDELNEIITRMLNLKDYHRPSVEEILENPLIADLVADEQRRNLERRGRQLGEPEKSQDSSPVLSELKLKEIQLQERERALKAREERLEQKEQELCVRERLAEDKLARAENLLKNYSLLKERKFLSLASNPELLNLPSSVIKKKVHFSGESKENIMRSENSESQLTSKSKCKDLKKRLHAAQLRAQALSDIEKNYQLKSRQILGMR
Chain of 266 human kinases (Homo sapiens, UniProt Q96SB4) (Q96SB4 whole entry): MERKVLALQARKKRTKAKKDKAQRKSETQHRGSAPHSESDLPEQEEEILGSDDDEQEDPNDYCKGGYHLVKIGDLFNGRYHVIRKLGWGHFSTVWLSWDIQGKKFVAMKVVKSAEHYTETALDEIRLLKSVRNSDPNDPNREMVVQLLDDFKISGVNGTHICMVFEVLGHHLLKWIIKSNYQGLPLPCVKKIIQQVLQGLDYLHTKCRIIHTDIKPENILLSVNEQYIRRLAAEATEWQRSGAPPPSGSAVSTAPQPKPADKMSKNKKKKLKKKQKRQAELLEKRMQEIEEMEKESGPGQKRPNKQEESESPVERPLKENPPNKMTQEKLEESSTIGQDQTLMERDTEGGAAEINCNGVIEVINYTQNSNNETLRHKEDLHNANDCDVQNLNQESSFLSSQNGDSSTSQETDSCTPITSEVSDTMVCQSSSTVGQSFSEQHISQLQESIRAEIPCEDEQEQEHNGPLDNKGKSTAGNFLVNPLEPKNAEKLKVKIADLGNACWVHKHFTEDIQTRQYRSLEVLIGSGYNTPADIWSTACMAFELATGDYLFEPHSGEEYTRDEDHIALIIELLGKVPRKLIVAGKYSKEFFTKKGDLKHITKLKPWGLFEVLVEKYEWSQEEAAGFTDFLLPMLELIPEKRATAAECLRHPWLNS
Chain of MAPKAP-K3 (h) (Q16644 whole entry): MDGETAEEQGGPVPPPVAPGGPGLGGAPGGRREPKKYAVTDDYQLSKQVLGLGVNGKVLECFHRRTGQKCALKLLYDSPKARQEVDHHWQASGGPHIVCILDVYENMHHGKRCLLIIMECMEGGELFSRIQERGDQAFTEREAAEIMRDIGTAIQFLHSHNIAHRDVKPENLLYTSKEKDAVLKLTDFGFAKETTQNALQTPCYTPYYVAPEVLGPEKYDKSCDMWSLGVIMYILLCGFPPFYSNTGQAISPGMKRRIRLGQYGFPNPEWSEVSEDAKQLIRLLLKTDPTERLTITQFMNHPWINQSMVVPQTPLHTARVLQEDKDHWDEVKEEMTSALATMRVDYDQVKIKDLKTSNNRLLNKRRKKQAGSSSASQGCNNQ
Chain of 266 human kinases (Homo sapiens, UniProt Q9Y3S1) (Q9Y3S1 whole entry): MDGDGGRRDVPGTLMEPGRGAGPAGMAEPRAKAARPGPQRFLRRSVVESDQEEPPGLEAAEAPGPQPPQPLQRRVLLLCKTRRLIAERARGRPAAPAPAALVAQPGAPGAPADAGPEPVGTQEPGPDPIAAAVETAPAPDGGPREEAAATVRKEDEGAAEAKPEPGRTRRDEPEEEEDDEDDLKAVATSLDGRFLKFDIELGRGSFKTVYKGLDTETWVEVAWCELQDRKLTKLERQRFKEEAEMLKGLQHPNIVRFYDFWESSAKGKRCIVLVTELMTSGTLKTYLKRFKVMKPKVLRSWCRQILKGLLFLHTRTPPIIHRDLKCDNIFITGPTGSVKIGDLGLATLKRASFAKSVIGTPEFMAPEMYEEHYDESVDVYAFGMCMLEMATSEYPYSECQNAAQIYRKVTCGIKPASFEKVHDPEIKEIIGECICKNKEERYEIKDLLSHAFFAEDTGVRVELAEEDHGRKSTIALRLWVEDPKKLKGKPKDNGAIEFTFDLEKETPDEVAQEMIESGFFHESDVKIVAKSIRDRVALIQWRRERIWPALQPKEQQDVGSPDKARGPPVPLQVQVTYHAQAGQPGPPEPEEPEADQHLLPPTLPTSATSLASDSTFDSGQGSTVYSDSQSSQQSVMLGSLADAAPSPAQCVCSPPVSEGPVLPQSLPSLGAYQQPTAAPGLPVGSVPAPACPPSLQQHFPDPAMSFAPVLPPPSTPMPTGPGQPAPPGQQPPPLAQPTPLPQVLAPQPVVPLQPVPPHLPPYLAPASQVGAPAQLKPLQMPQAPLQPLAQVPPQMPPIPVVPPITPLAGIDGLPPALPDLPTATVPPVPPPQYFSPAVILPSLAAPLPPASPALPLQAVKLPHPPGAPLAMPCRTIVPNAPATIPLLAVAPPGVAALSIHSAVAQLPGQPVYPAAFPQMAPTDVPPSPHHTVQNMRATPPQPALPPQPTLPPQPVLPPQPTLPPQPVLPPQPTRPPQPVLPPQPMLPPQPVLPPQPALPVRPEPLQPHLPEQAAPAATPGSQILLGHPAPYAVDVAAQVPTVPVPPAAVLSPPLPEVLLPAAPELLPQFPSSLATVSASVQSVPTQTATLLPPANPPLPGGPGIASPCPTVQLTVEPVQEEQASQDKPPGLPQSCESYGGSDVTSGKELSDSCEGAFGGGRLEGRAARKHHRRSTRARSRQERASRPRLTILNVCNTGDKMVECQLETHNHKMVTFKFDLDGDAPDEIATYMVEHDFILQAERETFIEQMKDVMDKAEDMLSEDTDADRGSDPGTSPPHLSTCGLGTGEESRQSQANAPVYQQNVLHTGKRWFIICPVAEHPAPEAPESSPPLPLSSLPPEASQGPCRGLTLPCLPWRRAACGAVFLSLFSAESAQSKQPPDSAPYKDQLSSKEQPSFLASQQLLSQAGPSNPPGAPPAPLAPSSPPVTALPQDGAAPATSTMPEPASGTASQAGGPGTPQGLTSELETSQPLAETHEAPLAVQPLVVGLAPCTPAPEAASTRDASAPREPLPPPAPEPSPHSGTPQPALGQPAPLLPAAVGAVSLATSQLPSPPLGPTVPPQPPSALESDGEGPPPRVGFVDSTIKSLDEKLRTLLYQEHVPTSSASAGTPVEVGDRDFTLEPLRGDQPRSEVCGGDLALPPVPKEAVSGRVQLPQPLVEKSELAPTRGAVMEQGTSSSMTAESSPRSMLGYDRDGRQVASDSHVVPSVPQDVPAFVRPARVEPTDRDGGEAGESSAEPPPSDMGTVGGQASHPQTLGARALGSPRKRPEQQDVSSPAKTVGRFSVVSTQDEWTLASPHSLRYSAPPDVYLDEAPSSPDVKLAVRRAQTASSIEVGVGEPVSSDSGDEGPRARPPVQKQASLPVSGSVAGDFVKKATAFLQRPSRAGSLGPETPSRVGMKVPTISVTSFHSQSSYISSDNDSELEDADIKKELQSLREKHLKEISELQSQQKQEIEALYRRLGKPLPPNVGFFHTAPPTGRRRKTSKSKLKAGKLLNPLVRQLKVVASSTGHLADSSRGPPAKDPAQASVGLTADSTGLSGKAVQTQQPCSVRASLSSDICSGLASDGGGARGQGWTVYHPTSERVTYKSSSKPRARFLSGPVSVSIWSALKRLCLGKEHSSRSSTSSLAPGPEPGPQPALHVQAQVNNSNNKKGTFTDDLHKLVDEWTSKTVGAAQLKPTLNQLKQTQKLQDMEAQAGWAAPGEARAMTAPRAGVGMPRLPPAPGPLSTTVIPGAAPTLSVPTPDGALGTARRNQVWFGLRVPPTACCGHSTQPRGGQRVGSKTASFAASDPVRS
Chain of MAPKAP-K2 (h) (P49137 whole entry): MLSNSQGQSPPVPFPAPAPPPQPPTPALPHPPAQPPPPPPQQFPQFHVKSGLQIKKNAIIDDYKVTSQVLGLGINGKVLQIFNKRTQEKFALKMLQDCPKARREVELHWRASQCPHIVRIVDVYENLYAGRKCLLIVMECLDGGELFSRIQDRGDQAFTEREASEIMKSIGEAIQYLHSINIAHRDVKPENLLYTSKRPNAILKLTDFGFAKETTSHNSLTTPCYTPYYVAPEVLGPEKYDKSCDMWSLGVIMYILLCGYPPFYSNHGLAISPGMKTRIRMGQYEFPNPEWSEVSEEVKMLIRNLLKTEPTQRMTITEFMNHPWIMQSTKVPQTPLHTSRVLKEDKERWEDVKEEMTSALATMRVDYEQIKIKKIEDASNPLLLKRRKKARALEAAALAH

Row | Sequence | % activity [1] | % activity ([2]; mTOR(h)) | % activity ([2]; mTOR/FKBP12(h)) | % activity [3] | % activity [4] | % activity [5] | % activity [6] | % activity [7] | % activity [8] | % activity [9] | % activity [10] | % activity [11] | % activity [12] | % activity [13] | % activity [14] | % activity [15] | % activity [16] | % activity [17] | % activity [18] | % activity [19]
1 | HRRIKAWLKKIKALARQLGVAA (mammal) [MMI-0500] | 0% | 135% | 140% | 169% | −10% | 23% | 57% | 8% | 0% | 65% | 79% | 18% | 80% | 16% | 9% | 12% | 9% |  |  | 
2 | YARAAARQARAKALNRQLGVA (mammal) [MMI-0200] |  | 110% | 118% |  |  |  |  | 94% | 97% |  | 128% | 100% | 93% |  | 35% | 7% | 39% | 71% | 93% | 95%
